Laboratory results published in paper PMC4258114.

Tested on: SaiR-His6 (Bacillus anthracis str. Sterne 7702)
Assay: restriction enzyme

With “spxA2 SaiR site 1 wild-type (oMN14-666/oMN14-667)” the K half was 6 nM.
